Experimental data as given in the supplement of paper PMC9170038.

Tested on: K4 kissing-loop RNA reporter
Assay: apparent KD of K4 kissing-loop reporter; higher = weaker reporter binding
Details: Eterna round: R107
Description: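 RNA-MaP round R107: designed RNA switches with theophylline, tryptophan, arginine or FMN aptamers are transcribed on-chip within common flanks. They are titrated with a labelled K4 kissing-loop RNA reporter in RNA-MaP buffer (100 mM Tris pH 7.5, 80 mM KCl, 4 mM MgCl2), without ligand or with the indicated ligand. Median apparent KD per design.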

[1] = input ligand: theophylline 20 uM
[2] = input ligand: tryptophan 2.4 mM
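Further: bound reporter read as fluorescence of individual clusters on recovered sequencing chips by microscopy, with normalized cluster intensities fitted with a binding model.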

UGGAGUUGACGAAAAGUCAACUCCUGAGAUACCAGUGACGAAAGUCACCCUUGGCAGCUCACUGGCAGUGAUGUUGCGCGAUAAA [#23 K4 Theophylline A Same State]
apparent KD of K4 kissing-loop reporter (input ligand: FMN 200 uM): 0.376 µM
apparent KD of K4 kissing-loop reporter (input ligand: arginine 13.2 mM): 0.288 µM
apparent KD of K4 kissing-loop reporter (input ligand: none): 0.364 µM
apparent KD of K4 kissing-loop reporter [1]: 0.367 µM
apparent KD of K4 kissing-loop reporter [2]: 0.402 µM

CCUAUCUCAUACGAUACCAGUCUAUUAAAACGAGUGAUGUUCGAAUAUUUGCCAUAUAAUGACCCUUGGCAGCGUAUGGGAUAGG [Ex Theophylline B K4 9]
apparent KD of K4 kissing-loop reporter (input ligand: FMN 200 uM): 0.221 µM
apparent KD of K4 kissing-loop reporter (input ligand: arginine 13.2 mM): 0.229 µM
apparent KD of K4 kissing-loop reporter (input ligand: none): 0.244 µM
apparent KD of K4 kissing-loop reporter [1]: 0.23 µM
apparent KD of K4 kissing-loop reporter [2]: 0.19 µM

UACUGGGCGAGUGAUGUUUGCUCAUGUGAUACCAGUGCCAUCCAACACCCUUGGCAGCAUGCGGGCAGUGAUGUUGUCCAUGGAA [Exclusion Theophylline A GF10]
apparent KD of K4 kissing-loop reporter (input ligand: FMN 200 uM): 0.629 µM
apparent KD of K4 kissing-loop reporter (input ligand: arginine 13.2 mM): 0.597 µM
apparent KD of K4 kissing-loop reporter (input ligand: none): 0.667 µM
apparent KD of K4 kissing-loop reporter [1]: 0.645 µM
apparent KD of K4 kissing-loop reporter [2]: 0.64 µM

GCAGUGAUGUUGCGCGAGUACGGUAGAGUACGAGGACCGGUACGGCCGCCACUCGUACGGAACUGGCUAAUUUAUGGAAUGGUGA [III]
apparent KD of K4 kissing-loop reporter (input ligand: FMN 200 uM): 0.254 µM
apparent KD of K4 kissing-loop reporter (input ligand: arginine 13.2 mM): 0.227 µM
apparent KD of K4 kissing-loop reporter (input ligand: none): 0.295 µM
apparent KD of K4 kissing-loop reporter [1]: 0.27 µM
apparent KD of K4 kissing-loop reporter [2]: 0.193 µM

UGACUGGAUGGAAGGAGCGCUAAACUCCUAGUGAUGUUAGGGAAAUGAGACAAAGUCUCAAGGCAGGUAGGUCGCCAUCUAGUCU [FiskerMod 16 - Jieux - Same State - Arginine B]
apparent KD of K4 kissing-loop reporter (input ligand: FMN 200 uM): 0.142 µM
apparent KD of K4 kissing-loop reporter (input ligand: arginine 13.2 mM): 0.0786 µM
apparent KD of K4 kissing-loop reporter (input ligand: none): 0.174 µM
apparent KD of K4 kissing-loop reporter [1]: 0.506 µM
apparent KD of K4 kissing-loop reporter [2]: 0.177 µM

GGAGUUACCUGGGAUACCAGUCGGAGUCCCAGAGCUCAGAGUGAUGUUCUGGGAUGUUUCGGCCCUUGGCAGCUCUGGGACUCCC [#2 Exclusion - Theophylline B Attempt #12 (HarryS)]
apparent KD of K4 kissing-loop reporter (input ligand: FMN 200 uM): 0.535 µM
apparent KD of K4 kissing-loop reporter (input ligand: arginine 13.2 mM): 0.509 µM
apparent KD of K4 kissing-loop reporter (input ligand: none): 0.637 µM
apparent KD of K4 kissing-loop reporter [1]: 0.599 µM
apparent KD of K4 kissing-loop reporter [2]: 0.466 µM

UUGAGCCUGACGUAAGUCAGGCUCUGCGAGCGAGGACCGGUACGGCCGCCACUCGGUGCAGUGAUGUUGCAUGGCCGCAAGGCCG [#2 Exclusion - Tryptophan A Attempt #15 (HarryS)]
apparent KD of K4 kissing-loop reporter (input ligand: FMN 200 uM): 0.278 µM
apparent KD of K4 kissing-loop reporter (input ligand: arginine 13.2 mM): 0.257 µM
apparent KD of K4 kissing-loop reporter (input ligand: none): 0.363 µM
apparent KD of K4 kissing-loop reporter [1]: 0.259 µM
apparent KD of K4 kissing-loop reporter [2]: 0.339 µM

AUUAUAUAGGCGGCCGCCACUAGUGAUGUUAGUGACUUUAUGAAAACAUAAAGAAUAAAAUAAUAUAGGACCGGGCCAUAAUAUU [AstrosExTryB#5]
apparent KD of K4 kissing-loop reporter (input ligand: FMN 200 uM): 0.475 µM
apparent KD of K4 kissing-loop reporter (input ligand: arginine 13.2 mM): 0.369 µM
apparent KD of K4 kissing-loop reporter (input ligand: none): 0.45 µM
apparent KD of K4 kissing-loop reporter [1]: 0.427 µM
apparent KD of K4 kissing-loop reporter [2]: 0.432 µM

UGGAUAUAGUGAUGUUAUAUAGAGAUGGAUACCAGCAAAGAGAAUUGCCCUUGGCAGCCGAAAGAAGUAUCAUUAGAGAAGAAUG [ExTheophyl.Af]
apparent KD of K4 kissing-loop reporter (input ligand: FMN 200 uM): 0.285 µM
apparent KD of K4 kissing-loop reporter (input ligand: arginine 13.2 mM): 0.221 µM
apparent KD of K4 kissing-loop reporter (input ligand: none): 0.278 µM
apparent KD of K4 kissing-loop reporter [1]: 0.277 µM
apparent KD of K4 kissing-loop reporter [2]: 0.206 µM

CCAAGGUGCUUCUGUUCAGUGAUGUUGGUACGAGGACCGGUACGGCCGCCACUCGCCGUACAAUCGCUAGUUAAUCAUUGGCAAG [theeternabot_exclusion_KL_Trp_A_40]
apparent KD of K4 kissing-loop reporter (input ligand: FMN 200 uM): 0.667 µM
apparent KD of K4 kissing-loop reporter (input ligand: arginine 13.2 mM): 0.408 µM
apparent KD of K4 kissing-loop reporter (input ligand: none): 0.66 µM
apparent KD of K4 kissing-loop reporter [1]: 0.441 µM
apparent KD of K4 kissing-loop reporter [2]: 0.256 µM
